Molecular target: nuclear translocation factor 2-like (NTF2L) domain of human G3BP1 (human, UniProt Q13283-1 1-138)
Assay: ITC

nuclear translocation factor 2-like (NTF2L) domain of human G3BP1, sequence (Q13283 other isoform, or with tags, fused parts or gaps): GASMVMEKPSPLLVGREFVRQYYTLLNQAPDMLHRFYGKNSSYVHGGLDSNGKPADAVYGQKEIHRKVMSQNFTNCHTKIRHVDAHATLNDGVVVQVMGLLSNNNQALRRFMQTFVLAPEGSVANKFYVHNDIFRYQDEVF

Binder | Kd
CHIKV nsP3 peptide CHIKV-43 (residues Glu469-Thr511) (peptide) GPLGSETFPITFGDFNDGEIESLSSELLTFGDFLPGEVDDLTDSDWSTHHHHHH | 0.078 µM
ITFGDFNDGEIESLSSELLTFGDFLP [CHIKV-26 peptide (residues Ile473 to Pro498 of CHIKV nsP3, without the α2 region)] | 7.8 µM
